The values below come from patent publication US20190144550A1.

The target in this assay is wild-type EGFR expressed on cells (human) (UniProt P00533). Briefly: flow cytometry, A431 cells.

“FITC-conjugated goat anti-mouse Fc specific secondary antibody” had an MFI of 185.
